Among the targets are GORASP1, Q9BQQ3; GRIP2_3, Q9C0E4; GRIP2_7, Q9C0E4; LIMK2, P53671; MAGI1_2, Q96QZ7; NHERF4_2, Q86UT5; PARD3_3, Q8TEW0; SCRIB_1, Q14160; SCRIB_3, Q14160; TJP1_2, Q07157; TJP2_1, Q9UDY2.
Assay in all cases: holdup assay
Common to all, as to set-up: key: below the threshold = too weak to quantify, mostly under pKd 3.1 to 4
Details in all cases: plain residues with an end cap or a label only (N-terminal biotin on a linker: ado-ado)

The target in a further test is T1, APBA2_2, Q99767.
T1 sequence (Q99767 654-744, limits assumed, looked up): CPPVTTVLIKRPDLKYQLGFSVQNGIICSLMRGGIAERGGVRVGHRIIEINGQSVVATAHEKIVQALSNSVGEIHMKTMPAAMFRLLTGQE

The target in a further test is T2, ARHGAP21, Q5T5U3.
T2 sequence (Q5T5U3 45-169, limits assumed, looked up): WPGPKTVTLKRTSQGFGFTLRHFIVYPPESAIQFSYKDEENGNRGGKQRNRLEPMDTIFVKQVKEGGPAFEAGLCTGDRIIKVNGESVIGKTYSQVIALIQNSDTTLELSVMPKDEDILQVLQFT

For another test, the target named is T3, CARD11, Q9BXL7.
T3 sequence (Q9BXL7 662-765, limits assumed, looked up): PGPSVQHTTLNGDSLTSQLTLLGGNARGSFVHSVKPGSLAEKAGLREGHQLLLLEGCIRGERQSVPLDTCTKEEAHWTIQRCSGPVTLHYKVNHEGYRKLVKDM

In the next test the target is T4, DFNB31_1, Q9P202.
T4 sequence (Q9P202 135-233, limits assumed, looked up): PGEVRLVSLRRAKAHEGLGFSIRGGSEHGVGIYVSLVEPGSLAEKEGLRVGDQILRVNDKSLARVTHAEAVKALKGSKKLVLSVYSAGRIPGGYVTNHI

A further test concerns the target T5, DFNB31_3, Q9P202.
T5 sequence (Q9P202 811-907, limits assumed, looked up): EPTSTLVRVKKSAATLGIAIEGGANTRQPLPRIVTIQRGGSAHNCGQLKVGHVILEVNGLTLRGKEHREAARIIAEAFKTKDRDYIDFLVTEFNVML

For another test, the target named is T6, FRMPD1, Q5SYB0.
T6 sequence (Q5SYB0 52-145, limits assumed, looked up): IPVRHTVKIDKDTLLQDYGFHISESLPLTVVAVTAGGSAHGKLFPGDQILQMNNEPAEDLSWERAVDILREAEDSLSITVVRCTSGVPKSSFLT

For another test, the target named is T7, HTRA3, P83110.
T7 sequence (P83110 354-453, limits assumed, looked up): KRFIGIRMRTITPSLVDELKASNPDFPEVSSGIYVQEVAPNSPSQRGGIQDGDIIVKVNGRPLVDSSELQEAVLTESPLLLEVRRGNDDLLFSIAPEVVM

A further test has as its target T8, PARD3B_1, Q8TEW8.
T8 sequence (Q8TEW8 196-299, limits assumed, looked up): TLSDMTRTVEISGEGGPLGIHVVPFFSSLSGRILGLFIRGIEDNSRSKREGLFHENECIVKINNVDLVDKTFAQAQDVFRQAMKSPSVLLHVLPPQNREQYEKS

The next test has as its target T9, PDZD7_3, Q9H5P4.
T9 sequence (Q9H5P4 857-944, limits assumed, looked up): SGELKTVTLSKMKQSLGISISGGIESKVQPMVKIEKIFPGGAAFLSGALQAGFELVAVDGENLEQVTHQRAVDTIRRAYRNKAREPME

Another test has as its target T10, SIPA1L2, Q9P2F8.
T10 sequence (Q9P2F8 945-1036, limits assumed, looked up): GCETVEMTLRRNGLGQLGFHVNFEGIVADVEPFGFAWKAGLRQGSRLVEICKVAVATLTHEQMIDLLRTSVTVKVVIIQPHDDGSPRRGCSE

Another test deals with T11, SNTA1, Q13424.
T11 sequence (Q13424 82-180, limits assumed, looked up): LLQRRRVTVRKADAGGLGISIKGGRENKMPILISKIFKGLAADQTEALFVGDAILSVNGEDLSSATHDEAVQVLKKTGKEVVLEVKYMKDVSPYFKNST

In a further test the target is T12, SNTG1, Q9NSN8.
T12 sequence (Q9NSN8 52-150, limits assumed, looked up): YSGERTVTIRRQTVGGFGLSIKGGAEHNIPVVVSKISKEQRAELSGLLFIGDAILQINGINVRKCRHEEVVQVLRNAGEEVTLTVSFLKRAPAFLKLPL

The next test addresses T13, TJP3_3, O95049.
T13 sequence (O95049 375-456, limits assumed, looked up): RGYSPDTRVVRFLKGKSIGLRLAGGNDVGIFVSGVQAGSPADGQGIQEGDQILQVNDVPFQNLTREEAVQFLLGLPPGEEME

Sequence of MAGI1_2, Q96QZ7 (Q96QZ7 456-580): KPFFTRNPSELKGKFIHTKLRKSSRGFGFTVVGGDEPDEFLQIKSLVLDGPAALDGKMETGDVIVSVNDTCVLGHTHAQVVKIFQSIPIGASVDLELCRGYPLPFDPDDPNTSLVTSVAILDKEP
Sequence of GRIP2_3, Q9C0E4 (Q9C0E4 238-339): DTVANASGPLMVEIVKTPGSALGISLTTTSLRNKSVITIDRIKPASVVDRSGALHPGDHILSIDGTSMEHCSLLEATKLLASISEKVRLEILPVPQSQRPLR
Sequence of SCRIB_1, Q14160 (Q14160 718-814): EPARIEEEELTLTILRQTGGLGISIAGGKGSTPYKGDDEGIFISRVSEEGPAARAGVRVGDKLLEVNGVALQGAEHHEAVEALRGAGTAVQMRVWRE
Sequence of PARD3_3, Q8TEW0 (Q8TEW0 582-685): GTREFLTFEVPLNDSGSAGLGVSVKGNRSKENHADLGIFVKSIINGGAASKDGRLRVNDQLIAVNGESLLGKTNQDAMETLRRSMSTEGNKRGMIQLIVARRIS
Sequence of TJP1_2, Q07157 (Q07157 181-274): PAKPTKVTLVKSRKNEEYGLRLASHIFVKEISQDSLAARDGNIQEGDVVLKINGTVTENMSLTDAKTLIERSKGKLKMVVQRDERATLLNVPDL
Sequence of LIMK2, P53671 (P53671 143-248): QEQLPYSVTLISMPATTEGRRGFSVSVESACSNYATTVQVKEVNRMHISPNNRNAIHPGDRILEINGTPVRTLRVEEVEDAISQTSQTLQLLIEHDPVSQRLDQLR
Sequence of GRIP2_7, Q9C0E4 (Q9C0E4 934-1023): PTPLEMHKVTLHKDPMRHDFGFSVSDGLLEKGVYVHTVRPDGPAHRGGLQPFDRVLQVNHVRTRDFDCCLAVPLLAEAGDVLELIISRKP
Sequence of GORASP1, Q9BQQ3 (Q9BQQ3 1-208): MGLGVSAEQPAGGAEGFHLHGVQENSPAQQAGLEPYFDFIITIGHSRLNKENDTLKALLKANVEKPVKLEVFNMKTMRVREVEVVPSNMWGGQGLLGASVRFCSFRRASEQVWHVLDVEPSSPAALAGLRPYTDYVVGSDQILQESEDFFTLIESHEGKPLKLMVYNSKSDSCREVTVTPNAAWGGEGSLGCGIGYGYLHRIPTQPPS
Sequence of SCRIB_3, Q14160 (Q14160 999-1103): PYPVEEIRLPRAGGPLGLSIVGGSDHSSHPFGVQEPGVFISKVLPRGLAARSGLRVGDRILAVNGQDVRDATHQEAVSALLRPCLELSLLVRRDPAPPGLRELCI
Sequence of TJP2_1, Q9UDY2 (Q9UDY2 24-128): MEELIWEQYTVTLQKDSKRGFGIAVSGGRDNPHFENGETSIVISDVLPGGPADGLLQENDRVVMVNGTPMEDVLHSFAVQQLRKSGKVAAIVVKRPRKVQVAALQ
Sequence of NHERF4_2, Q86UT5 (Q86UT5 220-308): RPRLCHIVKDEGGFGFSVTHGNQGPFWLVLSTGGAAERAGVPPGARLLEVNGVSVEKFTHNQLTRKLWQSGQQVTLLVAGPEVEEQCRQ

For orientation: pKd means the negative decadic logarithm of the Kd, by convention in mol/L. For the molecule KSRPENGTVC [TMEM178B, H3BS89], the pKd result with APBA2_2, Q99767 is “below the threshold”; with ARHGAP21, Q5T5U3, 4.14; with CARD11, Q9BXL7, “below the threshold”; with DFNB31_1, Q9P202, “below the threshold”; in the test with DFNB31_3, Q9P202, 3.99; in the test with FRMPD1, Q5SYB0 it was “below the threshold”. Besides, the pKd result was “below the threshold” with GORASP1, Q9BQQ3; “below the threshold” with GRIP2_3, Q9C0E4; “below the threshold” with GRIP2_7, Q9C0E4; 4.44 in the test with HTRA3, P83110; “below the threshold” in the test with LIMK2, P53671; “below the threshold” with MAGI1_2, Q96QZ7. In addition, the pKd result in the test with NHERF4_2, Q86UT5 is “below the threshold”; with PARD3B_1, Q8TEW8 it was “below the threshold”; in the test with PARD3_3, Q8TEW0, “below the threshold”; with PDZD7_3, Q9H5P4 it was “below the threshold”; with SCRIB_1, Q14160 it was 3.78; in the test with SCRIB_3, Q14160, 3.66. Further, the pKd entry with SIPA1L2, Q9P2F8 is recorded as “below the threshold”; with SNTA1, Q13424, “below the threshold”; with SNTG1, Q9NSN8, “below the threshold”; with TJP1_2, Q07157, “below the threshold”; in the test with TJP2_1, Q9UDY2, “below the threshold”; with TJP3_3, O95049, “below the threshold”.
As for TNSKQGETTV [FZD1, Q9UP38], the pKd entry was “below the threshold” in the test with APBA2_2, Q99767; 3.93 in the test with ARHGAP21, Q5T5U3; “below the threshold” with CARD11, Q9BXL7; 3.77 with DFNB31_1, Q9P202; 4.06 with DFNB31_3, Q9P202; “below the threshold” with FRMPD1, Q5SYB0. The pKd entry was “below the threshold” in the test with GORASP1, Q9BQQ3; “below the threshold” with GRIP2_3, Q9C0E4; “below the threshold” with GRIP2_7, Q9C0E4; “below the threshold” in the test with HTRA3, P83110; “below the threshold” with LIMK2, P53671; 3.82 in the test with MAGI1_2, Q96QZ7. Further, the pKd entry with NHERF4_2, Q86UT5 is “below the threshold”; with PARD3B_1, Q8TEW8 it was “below the threshold”; in the test with PARD3_3, Q8TEW0, 3.58; with PDZD7_3, Q9H5P4, 4.53; in the test with SCRIB_1, Q14160, 4.07; with SCRIB_3, Q14160, 4.38. Moreover, the pKd entry in the test with SIPA1L2, Q9P2F8 was “below the threshold”; with SNTA1, Q13424, 4.51; with SNTG1, Q9NSN8, 4.31; with TJP1_2, Q07157 it was 3.48; with TJP2_1, Q9UDY2, “below the threshold”; in the test with TJP3_3, O95049 it was “below the threshold”.
Turning to QQGLLPHSSC [TYRO3, Q06418], the pKd result in the test with APBA2_2, Q99767 is “below the threshold”; with ARHGAP21, Q5T5U3 it was 4; with CARD11, Q9BXL7 it was “below the threshold”; with DFNB31_1, Q9P202, “below the threshold”; with DFNB31_3, Q9P202 it was 4.21; with FRMPD1, Q5SYB0, “below the threshold”. For the same molecule, the pKd result in the test with GORASP1, Q9BQQ3 is “below the threshold”; with GRIP2_3, Q9C0E4, “below the threshold”; with GRIP2_7, Q9C0E4, “below the threshold”; in the test with HTRA3, P83110, “below the threshold”; with LIMK2, P53671, “below the threshold”; with MAGI1_2, Q96QZ7, “below the threshold”. Also, the pKd result was “below the threshold” with NHERF4_2, Q86UT5; “below the threshold” with PARD3B_1, Q8TEW8; “below the threshold” with PARD3_3, Q8TEW0; 3.9 with PDZD7_3, Q9H5P4; “below the threshold” with SCRIB_1, Q14160; “below the threshold” with SCRIB_3, Q14160. Also, the pKd entry is given as “below the threshold” with SIPA1L2, Q9P2F8; “below the threshold” in the test with SNTA1, Q13424; “below the threshold” with SNTG1, Q9NSN8; “below the threshold” with TJP1_2, Q07157; “below the threshold” in the test with TJP2_1, Q9UDY2; “below the threshold” with TJP3_3, O95049.
For the molecule IQISELETNV [SLC1A7, O00341], the pKd entry with APBA2_2, Q99767 is “below the threshold”; with ARHGAP21, Q5T5U3, 3.98; with CARD11, Q9BXL7, “below the threshold”; in the test with DFNB31_1, Q9P202, 4.19; in the test with DFNB31_3, Q9P202, “below the threshold”; with FRMPD1, Q5SYB0, “below the threshold”. The pKd result with GORASP1, Q9BQQ3 is “below the threshold”; in the test with GRIP2_3, Q9C0E4, “below the threshold”; with GRIP2_7, Q9C0E4, “below the threshold”; with HTRA3, P83110, “below the threshold”; with LIMK2, P53671 it was “below the threshold”; with MAGI1_2, Q96QZ7, “below the threshold”. For the same molecule, the pKd result is “below the threshold” with NHERF4_2, Q86UT5; “below the threshold” with PARD3B_1, Q8TEW8; 3.68 with PARD3_3, Q8TEW0; 4.85 with PDZD7_3, Q9H5P4; 4.11 with SCRIB_1, Q14160; 4.74 in the test with SCRIB_3, Q14160. The pKd entry with SIPA1L2, Q9P2F8 is “below the threshold”; with SNTA1, Q13424, 4.98; with SNTG1, Q9NSN8, 5.26; in the test with TJP1_2, Q07157 it was “below the threshold”; with TJP2_1, Q9UDY2, “below the threshold”; in the test with TJP3_3, O95049, “below the threshold”.

Values taken from publication PMC9482650, “Quantitative fragmentomics allow affinity mapping of interactomes” (Nature Communications, 2022).
